Source: US20100266502A1 (Chugai, published 2010)

B1: HE-39 (antibody, V domains shown)
VH: EVQLQQSGPELMKPGASVKMSCKASGYIFTDYYMNWVKQSHGKSLEWIGRVNPNNGGTSYSQKFKDKATLTVDKSLNTAYMQVNSLTSEDSAVYYCARIYYGGSDWGQGTTLTVSS
VL: EIVMTQTPLSLSVTIGQPASISCKSSQSLLYTTGKTYLNWLQQRPGQAPKHLMYQVSKLVPGIPDRFSGSGSETDFTLKISRVEAEDLGVYYCLQGTYYPHTFGSGTKLEIK
B2: HC-15 (antibody, V domains shown)
VH: EVQLQQSGPELVKPGASVKISCKASGYSFTGYYMHWVKQSPEKRLEWIGEINPRTGITTYNQKFKAKATLTVDKSSSTAYMQLKSLTSEDSAVYYCARVGSSGPFTYWGQGTLVTVSA
VL: DIVMTQSPSSLSVSAGDKVTMSCKSSQSLLNSRNQKNYLAWYQQKPWQPPKLLIYGASTRESGVPDRFTGSGSGTDFTLTISSVQAEDLAVYYCQNDYSYPFTFGTGTKLEIK

How the values were obtained:
[1] = target: T1, active-form HB-EGF protein (R&D Systems, Inc., 259-HE) (human, UniProt Q99075 63-148); experiment: competition ELISA: inhibition of HB-EGF (50 ng/mL) binding to immobilised EGFR-Fc
T1 construct: also called sHB-EGF; secreted-form HB-EGF

[2] = target: T1, active-form HB-EGF protein (R&D …); experiment: cell-based or functional assay
[3] = target: T1, active-form HB-EGF protein (R&D …); experiment: ELISA, purified antibody on plate coated with 1 µg/mL HB-EGF; given as ED50
[4] = target: T1, active-form HB-EGF protein (R&D …); experiment: cell-based or functional assay; remark: listed apart in the source
[5] = target: T1, active-form HB-EGF protein (R&D …); experiment: ELISA, purified antibody on plate coated with 1 µg/mL HB-EGF; printed as ED50 (antibody concentration that gave 50% binding)

T1 sequence (Q99075 63-148 limits assumed): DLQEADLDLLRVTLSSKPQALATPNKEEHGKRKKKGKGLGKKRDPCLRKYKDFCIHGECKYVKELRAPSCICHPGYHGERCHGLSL

Binder | EC50 [1] | Inhibition of HB-EGF-dependent growth (EC50, nmol/L) [2] | EC50 [3] | EC50 (nM), growth-inhibiting effect on EGFR_Ba/F3 cells [4] | EC50 [5]
B1 | 0.86 nM | 0.83 nmol/L | 0.016 nM | – | –
B2 | 0.52 nM | 2.06 nmol/L | 0.65 nM | 3.8 nM | 0.2 nM
